We go through one molecule from US20220332804A1 (CSL INNOVATION, published 2022).

Numbering of substitutions follows the chain as printed.

What all share (assay): SPR, antibody captured, C2 as analyte;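 also: biacore SPR at 37 °C, anti-C2 mAbs captured via goat anti-human IgG on CM5 chips, double-referenced sensorgrams fit to a 1:1 kinetic or steady-state model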
On the technique in general: In SPR one partner is held on a chip, and binding of the other changes the refractive index at the surface.

The target in one assay is T1, human C2 D441A (human, UniProt P06681 21-752).
T1 sequence: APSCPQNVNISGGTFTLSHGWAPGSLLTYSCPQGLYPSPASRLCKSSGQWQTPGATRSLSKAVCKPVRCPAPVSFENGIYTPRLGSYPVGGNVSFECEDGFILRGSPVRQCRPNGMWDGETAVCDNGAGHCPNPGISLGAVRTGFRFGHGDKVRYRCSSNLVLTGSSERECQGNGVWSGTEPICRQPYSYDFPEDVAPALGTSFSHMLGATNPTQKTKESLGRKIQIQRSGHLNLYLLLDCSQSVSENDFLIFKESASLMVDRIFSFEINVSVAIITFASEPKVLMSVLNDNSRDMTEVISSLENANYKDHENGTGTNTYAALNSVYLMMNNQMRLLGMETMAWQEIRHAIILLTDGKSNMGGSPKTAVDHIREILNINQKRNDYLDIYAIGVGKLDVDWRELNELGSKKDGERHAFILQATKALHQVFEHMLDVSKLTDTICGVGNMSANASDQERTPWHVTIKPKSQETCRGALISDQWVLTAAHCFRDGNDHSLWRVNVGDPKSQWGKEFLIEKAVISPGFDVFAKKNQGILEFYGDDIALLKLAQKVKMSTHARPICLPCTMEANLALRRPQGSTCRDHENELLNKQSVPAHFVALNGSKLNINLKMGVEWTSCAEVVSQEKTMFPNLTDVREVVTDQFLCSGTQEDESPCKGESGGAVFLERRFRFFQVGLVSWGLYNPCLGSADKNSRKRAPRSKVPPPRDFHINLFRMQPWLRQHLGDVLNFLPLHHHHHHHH

In the next assay the target is T2, human C2 E645A (human, UniProt P06681 21-752).
T2 sequence: T1 sequence with A421D, E625A

Another assay addresses T3, human C2 K715A (human, UniProt P06681 21-752).
T3 sequence: T1 sequence with A421D, K695A

A further assay addresses T4, human C2 L439A (human, UniProt P06681 21-752).
T4 sequence: T1 sequence with L419A, A421D

B1: RF16-226 (antibody, human IgG4 S228P, lambda)
heavy: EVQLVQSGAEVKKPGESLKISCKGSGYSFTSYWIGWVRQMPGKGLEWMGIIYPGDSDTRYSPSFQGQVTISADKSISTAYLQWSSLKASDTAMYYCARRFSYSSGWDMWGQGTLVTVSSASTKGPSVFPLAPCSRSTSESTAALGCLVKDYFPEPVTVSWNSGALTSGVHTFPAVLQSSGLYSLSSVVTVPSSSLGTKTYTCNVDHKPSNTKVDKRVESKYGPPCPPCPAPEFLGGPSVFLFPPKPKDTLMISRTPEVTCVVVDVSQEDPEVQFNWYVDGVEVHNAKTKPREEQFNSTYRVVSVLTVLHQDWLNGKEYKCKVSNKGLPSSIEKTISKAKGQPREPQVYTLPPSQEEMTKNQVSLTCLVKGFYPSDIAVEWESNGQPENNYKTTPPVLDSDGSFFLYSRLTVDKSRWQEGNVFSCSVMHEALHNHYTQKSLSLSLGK
light: SYELTQPPSVSVSPGQTARITCSGDALTSKYVAWYQQKSGLAPLLVIYEDTRRPSGIPAKFSGSSSGSVATLTISGAHGDDEADYYCYSTDASGHQRVFGGGTKLTVLSQPKAAPSVTLFPPSSEELQANKATLVCLISDFYPGAVTVAWKADGSPVKAGVETTKPSKQSNNKYAASSYLSLTPEQWKSHRSYSCQVTHEGSTVEKTVAPTECS
notes: pH-dependent anti-C2 antibody from a phage display library; also called WT
One may read the Kd as the concentration at which binding is half-saturated. Higher therefore signals weaker binding. Turning to B1, the Kd with human C2 D441A amounted to 63.9 nM; with human C2 E645A it was 14 nM; with human C2 K715A, 16.2 nM; with human C2 L439A, 118 nM.
